Five substances from PMC12846656 can be followed below.

The subject of data set [1] is WT Np (SARS-CoV-2 (ancestral, WA-1/2020 isolate)). The data set can be described thus: fluorescence anisotropy salt titration.
The test system of the next data set is HIV-1 Gag WT (HIV-1). The data set can be described thus: fluorescence anisotropy salt titration. Background: Polarisation of emitted light reports the rotation of a fluorescent probe.

With HIV-1 TARpolyA, the Kd – broadly, the constant that tells how readily two partners part at equilibrium – in data set [1] worked out at 260 µM.
For SL1-4, the Kd worked out at 260 µM in data set [1] and 120000 µM in the data set on HIV-1 Gag WT (HIV-1).
SL5: the results for the Kd (in data set [1]; with HIV-1 Gag WT (HIV-1)) were 500 µM and 140 µM, respectively.
Turning to HIV-1 WT Psi, the dissociation constant Kd in data set [1] was 38 µM.
Turning to SL1-5, the Kd in data set [1] amounted to 36 µM; in the data set with HIV-1 Gag WT (HIV-1) it was 21000 µM.
